Data as given in paper PMC10184537 (ACS Nano, 2023).

Biological target: murine urokinase-type plasminogen activator (murine, UniProt P06869)
Experiment: […]

murine urokinase-type plasminogen activator, sequence (P06869 21-433): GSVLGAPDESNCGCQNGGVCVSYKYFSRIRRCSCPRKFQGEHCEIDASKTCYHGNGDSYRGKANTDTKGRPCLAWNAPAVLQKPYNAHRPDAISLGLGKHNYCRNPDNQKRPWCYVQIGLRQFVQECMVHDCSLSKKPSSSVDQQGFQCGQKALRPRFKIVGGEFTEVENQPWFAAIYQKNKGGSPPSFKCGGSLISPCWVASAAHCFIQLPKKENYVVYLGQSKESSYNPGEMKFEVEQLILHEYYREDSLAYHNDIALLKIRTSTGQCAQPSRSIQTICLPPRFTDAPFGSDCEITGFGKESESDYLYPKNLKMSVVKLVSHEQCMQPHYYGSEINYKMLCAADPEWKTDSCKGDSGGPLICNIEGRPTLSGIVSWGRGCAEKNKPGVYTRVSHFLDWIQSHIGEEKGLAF

B1: nb22 nanobody (VHH)
VHH: QVQLQESGGGLVQAGGSLRLSCAASGRTFSSYVMGWFRQAPGKEREFVAAISWSGGSTNYADSVKGRFTISRDNAKNTVYLQMNSLKPEDTAVYYCAADLASSRDVSSWYWGQGTQVTVSS
  binding result: binds
